From PMC8260207

Target: Purified human ribosomes from HEK293 cells (human)

cGAMP synthesis by cGAS (thin-layer chromatography) with saturating DNA, fold stimulation by pre-incubation with purified ribosomes, cGAS at 150–300 nM: 8 fold
Substance: purified, recombinant human cGAS (from UniProt Q8N884 1-522) (natural protein)
